Measured values published in PMC9645730, “Cryo-EM structure of the human sodium-chloride cotransporter NCC” (Science Advances, 2022).

Biological target: the molecule itself
Test: cryo-EM structure; single-particle analysis of purified NCC at 9 mg/ml in 25 mM tris (pH 8.0), 150 mM NaCl, 0.02% GDN; TMD map with C2 symmetry, overall map with C1 symmetry

B1: human sodium-chloride cotransporter NCC (natural protein, UniProt P55017-1 1-1021, looked up)
chain: MAELPTTETPGDATLCSGRFTISTLLSSDEPSPPAAYDSSHPSHLTHSSTFCMRTFGYNTIDVVPTYEHYANSTQPGEPRKVRPTLADLHSFLKEGRHLHALAFDSRPSHEMTDGLVEGEAGTSSEKNPEEPVRFGWVKGVMIRCMLNIWGVILYLRLPWITAQAGIVLTWIIILLSVTVTSITGLSISAISTNGKVKSGGTYFLISRSLGPELGGSIGLIFAFANAVGVAMHTVGFAETVRDLLQEYGAPIVDPINDIRIIGVVSVTVLLAISLAGMEWESKAQVLFFLVIMVSFANYLVGTLIPPSEDKASKGFFSYRADIFVQNLVPDWRGPDGTFFGMFSIFFPSATGILAGANISGDLKDPAIAIPKGTLMAIFWTTISYLAISATIGSCVVRDASGVLNDTVTPGWGACEGLACSYGWNFTECTQQHSCHYGLINYYQTMSMVSGFAPLITAGIFGATLSSALACLVSAAKVFQCLCEDQLYPLIGFFGKGYGKNKEPVRGYLLAYAIAVAFIIIAELNTIAPIISNFFLCSYALINFSCFHASITNSPGWRPSFQYYNKWAALFGAIISVVIMFLLTWWAALIAIGVVLFLLLYVIYKKPEVNWGSSVQAGSYNLALSYSVGLNEVEDHIKNYRPQCLVLTGPPNFRPALVDFVGTFTRNLSLMICGHVLIGPHKQRMPELQLIANGHTKWLNKRKIKAFYSDVIAEDLRRGVQILMQAAGLGRMKPNILVVGFKKNWQSAHPATVEDYIGILHDAFDFNYGVCVMRMREGLNVSKMMQAHINPVFDPAEDGKEASARVDPKALVKEEQATTIFQSEQGKKTIDIYWLFDDGGLTLLIPYLLGRKRRWSKCKIRVFVGGQINRMDQERKAIISLLSKFRLGFHEVHILPDINQNPRAEHTKRFEDMIAPFRLNDGFKDEATVNEMRRDCPWKISDEEITKNRVKSLRQVRLNEIVLDYSRDAALIVITLPIGRKGKCPSSLYMAWLETLSQDLRPPVILIRGNQENVLTFYCQ
modifications: N-acetylglucosamine on Asn406 and Asn426; disulfide bonds Cys416-Cys421 and Cys430-Cys436
notes: human NCC (SLC12A3), cloned from HEK293 cDNA; an isoform that, compared with UniProt P55017-1, carries the naturally occurring A264G and lacks Gln95; residue numbers count on P55017-1; The atomic model holds residues 137-605 (TMD) and 616-1020 (CTD, docked as a rigid body from a SWISS-MODEL prediction); No cleavage of the tags is told; also called Na+-Cl- cotransporter; SLC12A3; not shown: FLAG, …
  stoichiometry N: 2
